Patent US10202584B2, “Red-shifted luciferase-luciferin pairs for enhanced bioluminescence” (The Regents of the University of California, priority 2016, dated 2019)
Numbering of substitutions follows the chain as printed. In names and notes the source's numbering stands.

B1: teLuc, NanoLuc variant D19S/D85N/C164H, SEQ ID NO: 2 (Oplophorus gracilirostris; … (protein)
chain: MVFTLEDFVGDWRQTAGYNLSQVLEQGGVSSLFQNLGVSVTPIQRIVLSGENGLKIDIHVIIPYEGLSGDQMGQIEKIFKVVYPVDNHHFKVILHYGTLVIDGVTPNMIDYFGRPYEGIAVFDGKKITVTGTLWNGNKIIDERLINPDGSLLFRVTINGVTGWRLHERILA
B2: yeLuc0.8, NanoLuc variant L18Q/D19A/S28T/C164S, SEQ ID NO: 3 (Oplophorus gracilirostris; … (protein)
chain: B1 chain with L20Q, S21A, S30T, N87D, H166S
B3: Antares2 (Antares with NanoLuc replaced by teLuc, D19S/D85N/C164H; fused to CyOFP1) (Oplophorus gracilirostris; … (protein)
chain: B1 chain
B4: yeLuc, NanoLuc variant yeLuc0.8-F1L/A14D/V27L/Q69R/R112Q/L142R (yeLuc0.8 = NanoLuc-L18Q/D19A/S28T/C164S), SEQ ID NO: 4 (Oplophorus gracilirostris; … (protein)
chain: MVLTLEDFVGDWRQTDGYNQAQVLEQGGLTSLFQNLGVSVTPIQRIVLSGENGLKIDIHVIIPYEGLSGDRMGQIEKIFKVVYPVDDHHFKVILHYGTLVIDGVTPNMIDYFGQPYEGIAVFDGKKITVTGTLWNGNKIIDERRINPDGSLLFRVTINGVTGWRLSERILA

Tests used:
[1] = substrate: O=c1c(Cc2ccccc2)nc2c(-c3ccccc3)[nH]c(-c3ccccc3)cn1-2; experiment: purified protein, by the assay type; conditions: other: apparent, 100 pM enzyme, substrate 0.78 to 50 μM, assay buffer pH 6.0, mean ± s.d., n = 3, 37.0 °C
[2] = substrate: O=c1c(Cc2ccccc2)nc2c([Se]c3ccccc3)[nH]c(-c3ccccc3)cn1-2; experiment: purified protein, by the assay type; conditions: other: apparent, 100 pM enzyme, substrate 0.78 to 50 μM, assay buffer pH 6.0, mean ± s.d., n = 3, 37.0 °C
Protocol: FIG. 8 is a panel of graphs showing substrate titrations with pure enzymes to determine apparent Michaelis constants (Km). Titrations using new luciferases (8a) and Fluc (8b) are shown. The final concentrations of all enzymes were 100 pM. Substrate concentrations varied from 0.78 to 50 μM, and peak bioluminescence intensities at individual substrate concentrations were used to fit the Michaelis-Menten equation. Data are shown as mean and s.d. of three independent experiments.
Luciferases were expressed and purified as His6-tagged fusion proteins (FIG. 18).
A Synergy Mx Microplate Reader (BioTek) was used for all in vitro bioluminescence characterizations. For kinetics measurements, no emission filter or monochromator was used. 50 μL of luciferin substrates in the assay buffer (1 mM CDTA, 0.5% Tergitol NP-40, 0.05% Antifoam 204, 150 mM KCl, 100 mM IVIES pH 6.0, 1 mM DTT, and 35 mM thiourea) was injected into the wells of white 96-well plates containing 50 μL of pure enzymes in the same assay buffer. The final concentrations of all enzymes and substrates were 100 pM and 30 μM, respectively. Measurements were taken every 60 s post-injection (1-s integration and 10-s shaking during intervals). FLuc bioluminescence assays were performed similarly, except the assay buffer contained 30 mM MOPS, pH 7.0, 1.5 mM ATP, and 5 mM MgSO4.

Protein	Km [1]	kcat [1]	Km [2]	kcat [2]
B1	10.2 ± 0.4 µM	88.1 ± 0.1 s⁻¹		
B2			6.3 ± 0.5 µM	
B3	9.7 ± 0.2 µM	86.1 ± 0.7 s⁻¹		
B4			11.9 ± 0.9 µM	175 ± 5 s⁻¹
